Measured values published in publication PMC6159526.

T1: HicB109-150 (C-terminal DNA-binding domain) (Streptococcus pneumoniae, UniProt A0A0H2URC7 109-150)
T1 chain: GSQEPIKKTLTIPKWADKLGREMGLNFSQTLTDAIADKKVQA

B1: hicBA promoter DNA, 28 bp (dsDNA)
DNA 1: TAATAGAATAATAAGTATCACTCCTTTA
DNA 2: TAAAGGAGTGATACTTATTATTCTATTA
B2: Pal-I (dsDNA)
DNA 1: TCTGTAACGTTCGATACAGA
DNA 2: TCTGTATCGAACGTTACAGA

Key:
[1] = molecular target: T2, HicB antitoxin;HicA toxin (Streptococcus pneumoniae;Streptococcus …, UniProt A0A0H2URC7;A0A0H2URA5 1-150;1-68, |); assay: ITC
[2] = molecular target: T1, HicB109-150 (C-terminal DNA-binding …); assay: NMR titration
HicB antitoxin [3] = molecular target: T3, HicB antitoxin (Streptococcus pneumoniae, UniProt A0A0H2URC7 1-150); assay: ITC
HicB antitoxin [4] = molecular target: T3, HicB antitoxin; assay: EMSA
[5] = molecular target: T2, HicB antitoxin;HicA toxin; assay: EMSA

Row | Binder | Kd [1] [µM] | Kd [2] [µM] | Kd (HicB antitoxin [3]) [µM] | binding result (HicB antitoxin [4]) | binding result [5]
1 | B1 | 4.2 ± 0.4 | 4.5 ± 1.1 | 8.8 ± 1.1 | – | –
2 | B2 | – | – | – | no binding | no binding
